This note sets out measurements from paper doi:10.1101/2021.05.06.443019.

The target of the experiment is ovine rBAT (purified with b^0,+AT) (ovine). Briefly: cryo-EM structure.

Substance “ovine rBAT (purified with b^0,+AT) (from UniProt A0ACI6R3A5 1-685) (natural protein)” showed a stoichiometry N of 2.
